Assay results taken from patent US20260167721A1 (ABLEXIS, published 2026).

B1: CD3 × CD33-BspAb91 (bispecific antibody)
chain 1: DIQMTQSPSTLSASVGDRVTITCRASQSISSWLAWFQQKTGKAPKLLIYKASSLESGVPSRFSGSGSGTEFTLTISSLQPDDFATYYCQQYISYSWTFGCGTKVEIKGGGGSGGGGSGGGGSGGGGSEVQLVESGGGLVQRGGSLRLSCAASGFTFSNYWMSWVRQAPGKCLEWVANIKEDGSEKYYVDSVKGRFTISRDNAKHSLYLQMNSLRAEDTAVYYCARERRTGYFDYWGQGTLVTVSSDKTHTCPPCPAPEFEGGPSVFLFPPKPKDTLMISRTPEVTCVVVDVSHEDPEVKFNWYVDGVEVHNAKTKPREEQYNSTYRVVSVLTVLHQDWLNGKEYKCKVSNKALPASIEKTISKAKGQPREPQVYTLPPCREEMTKNQVSLWCLVKGFYPSDIAVEWESNGQPENNYKTTPPVLDSDGSFFLYSKLTVDKSRWQQGNVFSCSVMHEALHNHYTQKSLSLSPGK
chain 2: EVQLVQSGAEVKKPGSSVKVSCKASGYTITDSNIHWVRQAPGQSLEWIGYIYPYNGGTDYNQKFKNRATLTVDNPTNTAYMELSSLRSEDTAFYYCVNGNPWLAYWGQGTLVTVSSASTKGPSVFPLAPSSKSTSGGTAALGCLVKDYFPEPVTVSWNSGALTSGVHTFPAVLQSSGLYSLSSVVTVPSSSLGTQTYICNVNHKPSNTKVDKRVEPKSCDKTHTCPPCPAPEFEGGPSVFLFPPKPKDTLMISRTPEVTCVVVDVSHEDPEVKFNWYVDGVEVHNAKTKPREEQYNSTYRVVSVLTVLHQDWLNGKEYKCKVSNKALPASIEKTISKAKGQPREPQVCTLPPSREEMTKNQVSLSCAVKGFYPSDIAVEWESNGQPENNYKTTPPVLDSDGSFFLVSKLTVDKSRWQQGNVFSCSVMHEALHNRFTQKSLSLSPGK
chain 3: DIQLTQSPSTLSASVGDRVTITCRASESLDNYGIRFLTWFQQKPGKAPKLLMYAASNQGSGVPSRFSGSGSGTEFTLTISSLQPDDFATYYCQQTKEVPWSFGQGTKVEVKRTVAAPSVFIFPPSDEQLKSGTASVVCLLNNFYPREAKVQWKVDNALQSGNSQESVTEQDSKDSTYSLSSTLTLSKADYEKHKVYACEVTHQGLSSPVTKSFNRGEC
B2: CD3 × CD33-BspAb93 (bispecific antibody)
chain 1: NFMLTQPHSVSESPGKTVTISCTRSSGSIASKYVQWYQQRPGSSPTTVIYEDNQRPSGVPDRFSGSIDSSSNSASLTISGLKTEDEADYYCQSYYSNNRVFGCGTKLTVLGGGGSGGGGSGGGGSGGGGSEVQLVESGGGLVQPGGSLRLSCAASGFTFSRYSMNWVRQAPGKCLEWVSYISRSSTTIYYADSVKGRFTISRDNAKNSLYLQMNSLRDEDAAVYYCARERWELLYFDYWGQGTLVTVSSDKTHTCPPCPAPEFEGGPSVFLFPPKPKDTLMISRTPEVTCVVVDVSHEDPEVKFNWYVDGVEVHNAKTKPREEQYNSTYRVVSVLTVLHQDWLNGKEYKCKVSNKALPASIEKTISKAKGQPREPQVYTLPPCREEMTKNQVSLWCLVKGFYPSDIAVEWESNGQPENNYKTTPPVLDSDGSFFLYSKLTVDKSRWQQGNVFSCSVMHEALHNHYTQKSLSLSPGK
chain 2: B1 chain 2
chain 3: B1 chain 3
B3: CD3 × CD33-BspAb94 (bispecific antibody)
chain 1: NFMLTQPHSVSESPGKTVTISCTRSSGSIASNYVQWYQQRPGSSPTTVIYEDNQRPSGVPDRFSGSIDSSSNSASLTISGLKTEDEADYYCQSYDSSNRVFGCGTKLTVLGGGGSGGGGSGGGGSGGGGSEVQLVESGGGLVKPGGSLRLSCAASGFTFSSYTMNWVRQAPGKCLEWVSSITTSSSYIYYADSVKGRFTISRDNAKNSLYLQMNSLRAEDTAVYYCARVTFDAFDIWGQGTMVTVSSDKTHTCPPCPAPEFEGGPSVFLFPPKPKDTLMISRTPEVTCVVVDVSHEDPEVKFNWYVDGVEVHNAKTKPREEQYNSTYRVVSVLTVLHQDWLNGKEYKCKVSNKALPASIEKTISKAKGQPREPQVYTLPPCREEMTKNQVSLWCLVKGFYPSDIAVEWESNGQPENNYKTTPPVLDSDGSFFLYSKLTVDKSRWQQGNVFSCSVMHEALHNHYTQKSLSLSPGK
chain 2: B1 chain 2
chain 3: B1 chain 3
B4: CD3 × CD33-BspAb96 (bispecific antibody)
chain 1: SYELTQPPSVSVSPGQTARITCSGDALPKKYAYWYQQKSGQAPVLVIYEDSKRPSGIPERFSGSSSGTMATLTISGAQVEDEADYYCYSTDSSGNHSWVFGCGTKLTVLGGGGSGGGGSGGGGSGGGGSEVQLVESGGGLVKPGGSLRLSCAASGFTFSSYSMNWVRQAPGKCLEWVSSVNSRGSYIYYADSVKGRFTISRDNAKDSLYLQMNSLRADDTAVYYCARDRRELLLDYWGQGTLVTVSSDKTHTCPPCPAPEFEGGPSVFLFPPKPKDTLMISRTPEVTCVVVDVSHEDPEVKFNWYVDGVEVHNAKTKPREEQYNSTYRVVSVLTVLHQDWLNGKEYKCKVSNKALPASIEKTISKAKGQPREPQVYTLPPCREEMTKNQVSLWCLVKGFYPSDIAVEWESNGQPENNYKTTPPVLDSDGSFFLYSKLTVDKSRWQQGNVFSCSVMHEALHNHYTQKSLSLSPGK
chain 2: B1 chain 2
chain 3: B1 chain 3
B5: CD3 × CD33-BspAb95 (bispecific antibody)
chain 1: NFMLTQPHSVSESPGKTVTISCTRSSGSIASNYVQWYQQRPGSSPTTVIYEDNQRSSGVPDRFSGSIDSSSNSASLTISGLKTEDEADYYCQSYDRSNRVFGCGTKLTVLGGGGSGGGGSGGGGSGGGGSEVQLVESGGGLVKPGGSLRLSCSASGFTFSTYTMNWVRQAPGKCLEWVSSISKSSSYIYYTDSVKGRFTISRDNAKNSLYLQMNSLRAEDTAVYYCARERRTLAFDIWGQGTMVTVSSDKTHTCPPCPAPEFEGGPSVFLFPPKPKDTLMISRTPEVTCVVVDVSHEDPEVKFNWYVDGVEVHNAKTKPREEQYNSTYRVVSVLTVLHQDWLNGKEYKCKVSNKALPASIEKTISKAKGQPREPQVYTLPPCREEMTKNQVSLWCLVKGFYPSDIAVEWESNGQPENNYKTTPPVLDSDGSFFLYSKLTVDKSRWQQGNVFSCSVMHEALHNHYTQKSLSLSPGK
chain 2: B1 chain 2
chain 3: B1 chain 3

Target: T1, human CD3 (TCR/CD3 complex on the cell surface) (human, UniProt P07766 23-207; P04234 22-171; P09693 23-182)
T1 construct: whole, on cells; Native CD3 on human Pan-T cells or Jurkat wild-type cells; also called CD3 on Pan-T cells; CD3 on Jurkat WT cells
Test: flow cytometry, Pan-T cells, 1 ug/mL

T1 sequence (P07766 23-207, chain 1 of 3): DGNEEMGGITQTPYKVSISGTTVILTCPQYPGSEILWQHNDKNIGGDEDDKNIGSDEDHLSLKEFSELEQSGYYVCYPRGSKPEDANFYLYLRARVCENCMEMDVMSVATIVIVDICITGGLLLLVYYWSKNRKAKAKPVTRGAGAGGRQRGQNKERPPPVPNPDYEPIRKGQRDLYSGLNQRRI
T1 sequence (P04234 22-171, chain 2 of 3): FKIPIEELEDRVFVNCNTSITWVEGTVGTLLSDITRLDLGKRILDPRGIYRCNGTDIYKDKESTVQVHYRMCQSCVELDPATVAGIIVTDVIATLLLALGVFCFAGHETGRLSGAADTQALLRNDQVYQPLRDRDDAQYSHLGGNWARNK
T1 sequence (P09693 23-182, chain 3 of 3): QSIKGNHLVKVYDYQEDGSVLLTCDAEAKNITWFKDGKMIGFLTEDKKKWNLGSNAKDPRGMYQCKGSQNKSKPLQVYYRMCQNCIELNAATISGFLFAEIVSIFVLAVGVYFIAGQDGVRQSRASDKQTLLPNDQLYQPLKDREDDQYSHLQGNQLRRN

% Positive [%]	gMFI [gMFI]	Binder
94.6	18500	B1
98.2	29600	B2
2.6	2050	B3
8.2	3700	B4
99.7	112000	B5

Target: T1, human CD3 (TCR/CD3 complex on the cell …)
Test: flow cytometry, Pan-T cells, 10 ug/mL

% Positive [%]	gMFI [gMFI]	Binder
99.4	127000	B1
99.8	135000	B2
4.4	2600	B3
95.8	17900	B4
99.8	232000	B5

Target: T1, human CD3 (TCR/CD3 complex on the cell …)
Test: flow cytometry, Jurkat WT cells, 1 ug/mL

gMFI [gMFI]	Binder
8110	B1
16200	B2
1830	B3
2370	B4
33900	B5

Target: T1, human CD3 (TCR/CD3 complex on the cell …)
Test: flow cytometry, Jurkat WT cells, 10 ug/mL

gMFI [gMFI]	Binder
31600	B1
28400	B2
2190	B3
7470	B4
39500	B5

Target: T1, human CD3 (TCR/CD3 complex on the cell …)
Test: flow cytometry, Jurkat WT gMFI over Jurkat KO gMFI, 1 ug/mL

Jurkat WT/KO (Fold) [fold]	Binder
3.7	B1
5.6	B2
0.8	B3
1.1	B4
10.5	B5

Target: T1, human CD3 (TCR/CD3 complex on the cell …)
Test: flow cytometry, Jurkat WT gMFI over Jurkat KO gMFI, 10 ug/mL

Jurkat WT/KO (Fold) [fold]	Binder
10.4	B1
9.5	B2
1.1	B3
3.5	B4
12.5	B5
